Source: patent US20200040396A1 (TECHNION RESEARCH AND DEVELOPMENT FOUNDATION, published 2020)

B1: WT-ZnT2-YN (other)
chain: MEAKEKQHLLDARPAIRSYTGSLWQEGAGWIPLPRPGLDLQAIELAAQSNHHCHAQKGPDSHCDPKKGKAQRQLYVASAICLLFMIGEVVGGYLAHSLAVMTDAAHLLTDFASMLISLFSLWMSSRPATKTMNFGWQRAEILGALVSVLSIWVVTGVLVYLAVERLISGDYEIDGGTMLITSGCAVAVNIIMGLTLHQSGHGHSHGTTNQQEENPSVRAAFIHVIGDFMQSMGVLVAAYILYFKPEYKYVDPICTFVFSILVLGTTLTILRDVILVLMEGTPKGVDFTAVRDLLLSVEGVEALHSLHIWALTVAQPVLSVHIAIAQNTDAQAVLKTASSRLQGKFHFHTVTIQIEDYSEDMKDCQACQGPSD
modifications: Carries a C-terminal YN reporter (non-fluorescent N-terminal half of YFP), not included in the letters.
notes: BiFC construct expressed in living MCF-7 cells; not shown: YN, the N-terminal half of YFP, and any linker to it
B3: Δ9AA-ZnT2-YC (other)
chain: MEAKEKQHLLDARPAIRSYTGSLWQEGAGWIPLPRPGLDLQAIELAAQSNHHCHAQKGPDSHCDPKKGKAQRQLYVASAICLLFMIGEVVGGYLAHSLAVMTDAAHLLTDFASMLISLFSLWMSSRPATKTMNFGWQRAEILGALVSVLSIWVVTGVLVYLAVERLISGDYEIDGGTMLITSGCAVAVNIIMGLTLHQSGHGHSHGTTNQQEENPSVRAAFIHVIGDFMQSMGVLVAAYILYFKPEYKYVDPICTFVFSILVLGTTLTILRDVILVLMEAVRDLLLSVEGVEALHSLHIWALTVAQPVLSVHIAIAQNTDAQAVLKTASSRLQGKFHFHTVTIQIEDYSEDMKDCQACQGPSD
modifications: Carries a C-terminal YC reporter (non-fluorescent C-terminal half of YFP), not included in the letters.
notes: Deletion introduced into the ZnT2 BiFC plasmid by site-directed mutagenesis (27 bp, 839_865del); also called Δ9AA-YC; truncated Δ9AA-ZnT2; not shown: YC, the C-terminal half of YFP, and any linker to it

Tests used:
[1] = molecular target: T1, β2AR-YC (UniProt P07550 1-413); assay: BiFC in MCF-7 cells, YFP fluorescence by flow cytometry
T1 construct: whole, on cells; Negative control partner in the BiFC assay; not shown: YC: non-fluorescent C-terminal half of YFP (BiFC tag)
Method: (§1) The ability of the alternative 3′ splice variant (Δ9AA) ZnT2 to form homodimers was evaluated using the bimolecular fluorescence complementation (BiFC) assay that has been previously applied for the detection of in situ dimerization of ZnT2 and other ZnTs in living cells. High YFP fluorescence intensity indicates a strong interaction between the two tagged proteins, as this enables the refolding of the two non-fluorescent halves of YFP (YN and YC) into a fully fluorescent protein.

[2] = molecular target: T2, WT-ZnT2-YC (human, UniProt Q9BRI3 1-372, Carries a C-terminal YC reporter (non-fluorescent C-terminal half of YFP), not included in the letters.); assay: western blot of BiFC transfectants (SDS-metastable dimers), anti-ZnT2 antibody
T2 construct: BiFC construct expressed in living MCF-7 cells; not shown: YC, the C-terminal half of YFP, and any linker to it
T2 sequence: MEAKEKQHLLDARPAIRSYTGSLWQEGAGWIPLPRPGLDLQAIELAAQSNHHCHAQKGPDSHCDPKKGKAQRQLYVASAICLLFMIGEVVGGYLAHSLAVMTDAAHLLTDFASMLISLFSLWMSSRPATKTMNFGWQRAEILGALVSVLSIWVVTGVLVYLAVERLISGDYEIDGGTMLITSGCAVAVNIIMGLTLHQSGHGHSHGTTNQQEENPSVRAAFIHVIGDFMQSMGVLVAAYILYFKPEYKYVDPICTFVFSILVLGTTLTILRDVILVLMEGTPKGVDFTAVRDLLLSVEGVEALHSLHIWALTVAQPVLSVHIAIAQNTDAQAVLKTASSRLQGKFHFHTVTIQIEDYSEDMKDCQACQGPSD
Method: MCF-7 cells were transiently transfected with the designated plasmids (3 μg in single construct transfection and 1.5 μg DNA of each construct in co-transfections). Membrane proteins were isolated on ice using an extraction buffer as previously described (Golan Y., et al., Journal of Biological Chemistry, 2015, 290(14):9050-63). Briefly, proteins (30 μg) were resolved by electrophoresis on 10% polyacrylamide gels, electroblotted onto cellulose nitrate membranes, blocked with Tris-buffered saline (TBS)-milk and reacted with mouse anti-ZnT2 monoclonal antibody (at 1:2,000 dilution, 1 hr at room temperature; generously provided by Prof T Kambe, Kyoto University, Kyoto, Japan). […] Similarly, actual protein loading onto the SDS-PAGE gels was confirmed by blot reprobing with a rabbit polyclonal antibody against the a subunit of Na⁺/K⁺ ATPase (KETTY at 1:3,000 dilution; kindly provided by Prof. S. J. D. Karlish, Weizmann Institute of Science, Rehovot, Israel) and detected with horseradish peroxidase-conjugated goat anti-rabbit IgG (1:15,000 dilution; Jackson Immunoresearch Labs, West Grove, Pa.).
The dimerization results were further confirmed by western blot analysis. […] However, in contrast to the ZnT2 protein which was predominantly present in the homodimer form (FIG. 4C, uppermost band), upon co-transfection of Δ9AA-YN+Δ9AA-YC no homodimers were detected (FIG. 4C). […]

[3] = molecular target: B3; assay: BiFC in MCF-7 cells, YFP fluorescence by flow cytometry
Method: as §1

[4] = molecular target: T2, WT-ZnT2-YC; assay: as above
Method: as §1

[5] = molecular target: B1; assay: as above
Method: as §1

B1
binding result [1]: no binding
binding result [2]: binds

B2: Δ9AA-ZnT2-YN (other)
chain: MEAKEKQHLLDARPAIRSYTGSLWQEGAGWIPLPRPGLDLQAIELAAQSNHHCHAQKGPDSHCDPKKGKAQRQLYVASAICLLFMIGEVVGGYLAHSLAVMTDAAHLLTDFASMLISLFSLWMSSRPATKTMNFGWQRAEILGALVSVLSIWVVTGVLVYLAVERLISGDYEIDGGTMLITSGCAVAVNIIMGLTLHQSGHGHSHGTTNQQEENPSVRAAFIHVIGDFMQSMGVLVAAYILYFKPEYKYVDPICTFVFSILVLGTTLTILRDVILVLMEAVRDLLLSVEGVEALHSLHIWALTVAQPVLSVHIAIAQNTDAQAVLKTASSRLQGKFHFHTVTIQIEDYSEDMKDCQACQGPSD
modifications: Carries a C-terminal YN reporter (non-fluorescent N-terminal half of YFP), not included in the letters.
notes: Deletion introduced into the ZnT2 BiFC plasmid by site-directed mutagenesis (27 bp, 839_865del); also called Δ9AA-YN; truncated Δ9AA-ZnT2; not shown: YN, the N-terminal half of YFP, and any linker to it
binding result [3]: no binding
binding result [4]: no binding

B3
binding result [5]: no binding
